Data reported in paper PMC11293393, “ChAHP2 and ChAHP control diverse retrotransposons by complementary activities” (Genes & Development, 2024).

B1: His-ADNP2 (natural protein, human, UniProt Q6IQ32 1-1131, looked up)
chain: MFQIPVENLDNIRKVRKKVKGILVDIGLDSCKELLKDLKGFDPGEKYFHNTSWGDVSLWEPSGKKVRYRTKPYCCGLCKYSTKVLTSFKNHLHRYHEDEIDQELVIPCPNCVFASQPKVVGRHFRMFHAPVRKVQNYTVNILGETKSSRSDVISFTCLKCNFSNTLYYSMKKHVLVAHFHYLINSYFGLRTEEMGEQPKTNDTVSIEKIPPPDKYYCKKCNANASSQDALMYHILTSDIHRDLENKLRSVISEHIKRTGLLKQTHIAPKPAAHLAAPANGSAPSAPAQPPCFHLALPQNSPSPAAGQPVTVAQGAPGSLTHSPPAAGQSHMTLVSSPLPVGQNSLTLQPPAPQPVFLSHGVPLHQSVNPPVLPLSQPVGPVNKSVGTSVLPINQTVRPGVLPLTQPVGPINRPVGPGVLPVSPSVTPGVLQAVSPGVLSVSRAVPSGVLPAGQMTPAGQMTPAGVIPGQTATSGVLPTGQMVQSGVLPVGQTAPSRVLPPGQTAPLRVISAGQVVPSGLLSPNQTVSSSAVVPVNQGVNSGVLQLSQPVVSGVLPVGQPVRPGVLQLNQTVGTNILPVNQPVRPGASQNTTFLTSGSILRQLIPTGKQVNGIPTYTLAPVSVTLPVPPGGLATVAPPQMPIQLLPSGAAAPMAGSMPGMPSPPVLVNAAQSVFVQASSSAADTNQVLKQAKQWKTCPVCNELFPSNVYQVHMEVAHKHSESKSGEKLEPEKLAACAPFLKWMREKTVRCLSCKCLVSEEELIHHLLMHGLGCLFCPCTFHDIKGLSEHSRNRHLGKKKLPMDYSNRGFQLDVDANGNLLFPHLDFITILPKEKLGEREVYLAILAGIHSKSLVPVYVKVRPQAEGTPGSTGKRVSTCPFCFGPFVTTEAYELHLKERHHIMPTVHTVLKSPAFKCIHCCGVYTGNMTLAAIAVHLVRCRSAPKDSSSDLQAQPGFIHNSELLLVSGEVMHDSSFSVKRKLPDGHLGAEDQRHGEEQPPILNADAAPGPEKVTSVVPFKRQRNESRTEGPIVKDEALQILALDPKKYEGRSYEEKKQFLKDYFHKKPYPSKKEIELLSSLFWVWKIDVASFFGKRRYICMKAIKNHKPSVLLGFDMSELKNVKHRLNFEYEP
notes: ADNP2, human, full length, amino acid residues 1-1131; pFast-Bac-derived vector; also called full-length human ADNP2; source: Trichoplusia ni High5 cells (baculovirus), coexpressed with Strep-HP1β; in lysate for the pull-down, Strep-Tactin eluate for SEC-MALS; not shown: His6, N-terminal, kept
B2: Strep-HP1β (natural protein)
chain: not shown
notes: HP1β (CBX1), human, full length, amino acid residues 1-185; pFast-Bac-derived vector; also called full-length human HP1β; source: Trichoplusia ni High5 cells (baculovirus), coexpressed with His-ADNP2; in lysate for the pull-down, Strep-Tactin eluate for SEC-MALS; not shown: Strep tag II, N-terminal, kept

How the values were obtained:
His-CHD4 = target: T1, His-CHD4 (human, UniProt Q14839 1-1912); experiment: SEC-MALS; Strep-Tactin eluate, ~4-5 mg/mL, Superose 6 Increase 10/300 GL, 50 mM HEPES-OH pH 7.4, 150 mM NaCl, 0.5 mM TCEP; conditions: both partners purified
T1 construct: CHD4, human, full length, amino acid residues 1-1912; pAC8-derived vector; also called full-length human CHD4; source: Trichoplusia ni High5 cells (baculovirus), expressed separately; in lysate for the pull-down, Strep-Tactin eluate for SEC-MALS; not shown: His6, N-terminal, kept

His-ADNP2 = target: B1; experiment: pull-down; High5 cell pools (His-ADNP2 + Strep-HP1β coexpressed; His-CHD4 separately) mixed and lysed; cleared lysate over Strep-Tactin sepharose, 50 mM Tris pH 7.5, 300 mM NaCl, 0.1% Triton X-100; eluted with 2.5 mM desthiobiotin; SDS-PAGE and Coomassie staining; conditions: partners not purified

T1 sequence (Q14839 whole entry, the tested form may be a part): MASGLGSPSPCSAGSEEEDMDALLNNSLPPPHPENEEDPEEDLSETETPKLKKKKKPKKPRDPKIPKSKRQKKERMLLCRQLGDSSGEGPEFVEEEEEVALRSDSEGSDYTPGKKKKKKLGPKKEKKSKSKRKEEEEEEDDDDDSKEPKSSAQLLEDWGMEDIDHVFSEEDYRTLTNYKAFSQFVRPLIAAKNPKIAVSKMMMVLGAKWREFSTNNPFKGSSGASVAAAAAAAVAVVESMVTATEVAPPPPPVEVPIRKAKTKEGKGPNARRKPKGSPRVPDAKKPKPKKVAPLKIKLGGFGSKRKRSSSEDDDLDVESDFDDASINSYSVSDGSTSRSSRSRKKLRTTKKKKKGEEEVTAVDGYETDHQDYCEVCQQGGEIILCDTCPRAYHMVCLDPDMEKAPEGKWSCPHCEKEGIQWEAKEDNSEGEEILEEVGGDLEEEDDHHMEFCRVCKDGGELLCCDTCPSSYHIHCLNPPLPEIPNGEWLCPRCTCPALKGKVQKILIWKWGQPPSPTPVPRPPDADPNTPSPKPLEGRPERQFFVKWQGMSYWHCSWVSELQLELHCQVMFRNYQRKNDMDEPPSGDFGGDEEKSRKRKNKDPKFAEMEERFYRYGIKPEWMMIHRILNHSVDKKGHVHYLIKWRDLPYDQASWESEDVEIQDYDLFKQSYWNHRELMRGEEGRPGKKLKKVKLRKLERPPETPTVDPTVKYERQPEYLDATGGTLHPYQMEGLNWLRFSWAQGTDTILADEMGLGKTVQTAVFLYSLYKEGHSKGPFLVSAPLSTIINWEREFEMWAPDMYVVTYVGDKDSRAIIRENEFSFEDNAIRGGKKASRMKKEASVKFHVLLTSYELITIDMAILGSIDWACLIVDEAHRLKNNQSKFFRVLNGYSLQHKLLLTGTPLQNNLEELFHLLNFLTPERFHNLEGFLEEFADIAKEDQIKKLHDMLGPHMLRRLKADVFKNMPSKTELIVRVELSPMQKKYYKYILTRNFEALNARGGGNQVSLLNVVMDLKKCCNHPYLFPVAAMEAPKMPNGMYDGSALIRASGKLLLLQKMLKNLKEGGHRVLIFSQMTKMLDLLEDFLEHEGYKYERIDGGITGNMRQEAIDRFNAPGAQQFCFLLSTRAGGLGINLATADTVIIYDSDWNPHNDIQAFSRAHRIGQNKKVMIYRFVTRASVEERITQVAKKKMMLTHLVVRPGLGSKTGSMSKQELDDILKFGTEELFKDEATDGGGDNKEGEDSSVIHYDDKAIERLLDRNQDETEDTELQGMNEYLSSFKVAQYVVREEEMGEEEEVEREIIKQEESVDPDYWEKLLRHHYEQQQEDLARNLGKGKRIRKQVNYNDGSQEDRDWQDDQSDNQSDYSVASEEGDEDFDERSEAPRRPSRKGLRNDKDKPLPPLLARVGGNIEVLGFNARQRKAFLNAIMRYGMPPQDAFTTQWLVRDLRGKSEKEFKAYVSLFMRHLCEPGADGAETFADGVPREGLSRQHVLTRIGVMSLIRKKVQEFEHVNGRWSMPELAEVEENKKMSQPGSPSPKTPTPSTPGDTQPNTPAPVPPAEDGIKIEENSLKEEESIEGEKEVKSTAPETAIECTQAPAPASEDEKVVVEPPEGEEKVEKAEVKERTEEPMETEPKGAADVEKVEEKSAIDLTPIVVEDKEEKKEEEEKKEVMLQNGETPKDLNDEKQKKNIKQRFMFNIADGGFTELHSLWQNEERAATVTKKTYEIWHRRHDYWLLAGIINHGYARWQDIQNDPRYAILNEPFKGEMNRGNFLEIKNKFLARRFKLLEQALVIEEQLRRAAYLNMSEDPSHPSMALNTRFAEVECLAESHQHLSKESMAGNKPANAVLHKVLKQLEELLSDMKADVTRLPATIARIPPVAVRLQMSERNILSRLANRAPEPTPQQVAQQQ

Binder | binding result (His-CHD4) | binding result (His-ADNP2)
B1 | binds | 
B2 | binds | binds
